Data reported in paper doi:10.1101/2023.07.12.548668.

B1: 30mer AT-rich DNA (dsDNA)
DNA 1: GAAGTAAAATTAAAAAAACAAAAAGAAGCT
DNA 2: AGCTTCTTTTTGTTTTTTTAATTTTACTTC
B2: 30mer DNA (random) (dsDNA)
DNA 1: GATCCCTCTAGATATCGGGCCCTCGATCCG
DNA 2: CGGATCGAGGGCCCGATATCTAGAGGGATC
B3: 30mer GC-rich DNA (dsDNA)
DNA 1: TACCGGGGCGCGAGCCCAGCGCTCCTCCCA
DNA 2: TGGGAGGAGCGCTGGGCTCGCGCCCCGGTA

Target: XLF (UniProt Q9H9Q4 1-299)
Experiment: NMR titration (2D lineshape, TITAN); apparent KD; NMR buffer (composition, salt and pH not in material); 800 MHz, 298 K stated for relaxation measurements; EMSA buffer not given
Settings: protein: recombinant; tags: N-terminal 6xHis-TEV; chain copies: 2; blunt

XLF, sequence (Q9H9Q4 whole entry): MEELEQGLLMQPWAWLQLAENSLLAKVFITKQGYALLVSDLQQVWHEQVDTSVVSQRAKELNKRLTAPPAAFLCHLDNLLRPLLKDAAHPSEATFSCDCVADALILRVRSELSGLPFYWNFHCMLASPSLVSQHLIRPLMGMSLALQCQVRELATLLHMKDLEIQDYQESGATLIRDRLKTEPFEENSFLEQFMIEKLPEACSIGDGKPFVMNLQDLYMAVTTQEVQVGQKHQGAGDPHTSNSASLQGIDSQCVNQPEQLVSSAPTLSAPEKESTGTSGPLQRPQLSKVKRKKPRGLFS

Binder	Kd
B1	4.3 ± 0.42 µM
B2	14.3 ± 0.9 µM
B3	6.39 ± 0.81 µM
